Data taken from article PMC8056151.

Molecular target: AG-tagged DDB1 (DNA damage-binding protein 1) (human) (UniProt Q16531)
Test: Fluoppi

UniProt Q16531, sequence (Q16531 whole entry): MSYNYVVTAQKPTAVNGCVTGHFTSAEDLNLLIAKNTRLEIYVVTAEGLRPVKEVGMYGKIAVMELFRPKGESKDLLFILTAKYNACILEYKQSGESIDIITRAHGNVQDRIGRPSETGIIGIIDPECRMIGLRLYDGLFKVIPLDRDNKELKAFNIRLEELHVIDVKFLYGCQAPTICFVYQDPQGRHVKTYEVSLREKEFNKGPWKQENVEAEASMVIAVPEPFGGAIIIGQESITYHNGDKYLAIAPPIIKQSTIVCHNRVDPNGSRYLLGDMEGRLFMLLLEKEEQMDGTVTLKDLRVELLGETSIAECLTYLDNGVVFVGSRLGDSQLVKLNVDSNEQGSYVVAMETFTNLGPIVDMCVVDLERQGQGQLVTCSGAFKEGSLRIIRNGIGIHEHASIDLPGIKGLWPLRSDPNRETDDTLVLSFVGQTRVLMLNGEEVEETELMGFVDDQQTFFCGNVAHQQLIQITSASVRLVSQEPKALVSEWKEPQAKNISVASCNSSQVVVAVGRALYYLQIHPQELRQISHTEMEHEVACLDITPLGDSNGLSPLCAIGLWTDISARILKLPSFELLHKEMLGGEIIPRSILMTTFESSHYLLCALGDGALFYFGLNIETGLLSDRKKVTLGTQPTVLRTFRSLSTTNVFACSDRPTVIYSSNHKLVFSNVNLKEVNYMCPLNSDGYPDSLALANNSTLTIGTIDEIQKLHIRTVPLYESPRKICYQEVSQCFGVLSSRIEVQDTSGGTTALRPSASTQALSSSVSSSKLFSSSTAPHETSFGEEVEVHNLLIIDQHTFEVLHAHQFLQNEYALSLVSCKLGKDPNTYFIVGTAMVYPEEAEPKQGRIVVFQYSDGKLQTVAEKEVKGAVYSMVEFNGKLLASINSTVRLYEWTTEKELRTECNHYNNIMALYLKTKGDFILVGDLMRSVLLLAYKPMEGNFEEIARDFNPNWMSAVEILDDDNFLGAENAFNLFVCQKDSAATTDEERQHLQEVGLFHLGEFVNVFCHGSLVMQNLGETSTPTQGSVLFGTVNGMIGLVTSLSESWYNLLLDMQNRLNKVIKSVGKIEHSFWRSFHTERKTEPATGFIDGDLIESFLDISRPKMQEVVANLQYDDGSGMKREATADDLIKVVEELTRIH

Substance: Ash-tagged hepatitis B virus X protein (full-length HBx, wild type) (natural protein)
- percent of fluorescent puncta left with NTZ: 50%
